B1: NIH-CoVnb-112 (VHH)
VHH: DVQLQESGGGLVQPGGSLRLSCAASGLTLDYYAIGWFRQAPGKEREGVSCISSSDGSTYYADSVKGRFTTSRDNAKNTVYLQMNSLKPEDTAVYYCAAVPSTYYSGTYYYTCHPGGMDYWGKGTQVTVSS
B2: NIH-CoVnb-112 (VHH)
VHH: B1 VHH

Tests used:
Settings in all cases: both partners purified
[1] = molecular target: recombinant SARS-CoV-2 RBD, prototype (BLI) (SARS-CoV-2, prototype (Wuhan-Hu-1), UniProt P0DTC2); experiment: BLI
[2] = molecular target: T1, SARS-CoV-2 RBD (prototype), construct made for crystallography (SARS-CoV-2, prototype (Wuhan-Hu-1)); experiment: crystal structure
T1 construct: also called prototype SARS-CoV-2 RBD; SARS-CoV-2 RBD (319-537)

[3] = molecular target: SARS-CoV-2 RBD, prototype (SARS-CoV-2, prototype (Wuhan-Hu-1), UniProt P0DTC2); experiment: BLI

Row | Binder | Kd [1] [nM] | koff [1] [s⁻¹] | binding result [2] | kon [3] [M⁻¹ s⁻¹]
1 | B1 | 1.59 | 0.000236 | binds | –
2 | B2 | – | – | – | 223000

From PMC8928829 (mAbs, 2022)
